Measured values taken from paper PMC5414179, “Functional characterization of a multi-cancer risk locus on chr5p15.33 reveals regulation of TERT by ZNF148”.

Biological target: T1, ZNF148 (ZBP-89), recombinant (Homo sapiens, UniProt Q9UQR1 1-794)
T1 sequence: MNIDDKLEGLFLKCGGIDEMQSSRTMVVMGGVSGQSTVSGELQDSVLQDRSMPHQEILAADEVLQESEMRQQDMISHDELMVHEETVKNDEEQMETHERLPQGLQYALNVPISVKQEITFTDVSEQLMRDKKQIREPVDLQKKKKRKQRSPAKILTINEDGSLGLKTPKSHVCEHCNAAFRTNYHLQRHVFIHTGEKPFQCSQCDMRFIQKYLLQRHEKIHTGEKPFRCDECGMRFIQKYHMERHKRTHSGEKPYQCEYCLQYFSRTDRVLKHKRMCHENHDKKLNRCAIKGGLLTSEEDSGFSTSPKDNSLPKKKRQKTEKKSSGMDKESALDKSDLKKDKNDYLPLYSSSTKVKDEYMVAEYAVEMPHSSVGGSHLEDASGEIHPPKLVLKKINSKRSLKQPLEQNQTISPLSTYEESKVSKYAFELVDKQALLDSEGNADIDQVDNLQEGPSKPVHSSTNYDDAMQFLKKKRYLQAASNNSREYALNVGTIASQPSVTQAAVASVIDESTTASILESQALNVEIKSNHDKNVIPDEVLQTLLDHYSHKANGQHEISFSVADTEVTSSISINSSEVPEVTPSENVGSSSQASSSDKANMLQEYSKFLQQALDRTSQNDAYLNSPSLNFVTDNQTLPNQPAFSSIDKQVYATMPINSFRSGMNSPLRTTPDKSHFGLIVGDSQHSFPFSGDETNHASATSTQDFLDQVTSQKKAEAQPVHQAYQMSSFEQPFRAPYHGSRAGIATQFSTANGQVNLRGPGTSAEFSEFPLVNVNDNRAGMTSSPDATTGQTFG
Assay: EMSA; positive control; EMSA: 10 ug nuclear extract or 90-630 ng recombinant ZNF148 with 3'-biotin probe, 20 min on ice, 4-20% TBE gel; antibody preincubation 20 min at room temperature; buffer, salt and pH not stated
Settings: protein: commercial; label: 3' biotin; blunt

B1: ZNF148 binding motif, CDKN1A/p21 promoter (dsDNA)
DNA 1: CGCAGGCGAGGGACTGGGGGAGGAGGGAAGTGCCC
DNA 2: GGGCACTTCCCTCCTCCCCCAGTCCCTCGCCTGCG
B1: binds.
